Assay results from US20040002586A1.

Molecular target: recombinant human interleukin-22 (IL-22), expressed in E. coli from pEThTIF, refolded, not glycosylated (human) (UniProt Q9GZX6)
Test: X-ray crystal structure, surface buried between monomer A and monomer B

In the case of “recombinant human interleukin-22 (IL-22), expressed in E. coli from pEThTIF, refolded, not glycosylated (from UniProt Q9GZX6 29-179) (ligand)”, the interface area is reported as 2250 Å^2.
